From patent publication US20230201322A1
Like-named read-outs stand apart in the source and are kept apart here.

How the values were obtained:
[1] = target: HLA-A*0201 molecule expressed on the human tumoral cell T2 (human); experiment: T2 cell HLA-A2 FACS (BB7.2-PE), peptide 10 µM
[2] = target: HLA-A*0201 molecule expressed on the human tumoral cell T2 (human); experiment: T2 cell HLA-A2 FACS (BB7.2-PE), peptide 0.1 µM
[3] = target: HLA-A*0201 molecule expressed on the human tumoral cell T2 (human); experiment: T2 cell HLA-A2 FACS (BB7.2-PE), peptide 10 µM; remark: listed apart in the source
[4] = target: HLA-A*0201 molecule expressed on the human tumoral cell T2 (human); experiment: T2 cell HLA-A2 FACS (BB7.2-PE), peptide titration
[5] = target: HLA-A*0201 molecule expressed on the human tumoral cell T2 (human); experiment: T2 cell HLA-A2 FACS (BB7.2-PE), peptide 1 µM
[6] = target: HLA-A*0201 molecule expressed on the human tumoral cell T2 (human); experiment: T2 cell HLA-A2 FACS (BB7.2-PE), peptide 1 µM; remark: listed apart in the source
[7] = target: HLA-A*0201 molecule expressed on the human tumoral cell T2 (human); experiment: T2 cell HLA-A2 FACS (BB7.2-PE), peptide 0.1 µM; remark: listed apart in the source
[8] = target: HLA-A*0201 molecule expressed on the human tumoral cell T2 (human); experiment: T2 cell HLA-A2 FACS (BB7.2-PE), peptide titration; remark: listed apart in the source
[9] = target: HLA-A*0201 molecule expressed on the human tumoral cell T2 (human); experiment: T2 cell HLA-A2 FACS (BB7.2-PE), peptide 1 µM; remark: listed apart in the source
[10] = target: HLA-A*0201 molecule expressed on the human tumoral cell T2 (human); experiment: T2 cell HLA-A2 FACS (BB7.2-PE), peptide titration; remark: listed apart in the source
[11] = target: HLA-A*0201 molecule expressed on the human tumoral cell T2 (human); experiment: T2 cell HLA-A2 FACS (BB7.2-PE), peptide 10 µM; remark: listed apart in the source
[12] = target: HLA-A*0201 molecule expressed on the human tumoral cell T2 (human); experiment: T2 cell HLA-A2 FACS (BB7.2-PE), peptide 0.1 µM; remark: listed apart in the source

Substance: reference peptide HIV pol 589-597
- HLA-A2 labelling as % of reference peptide HIV pol 589-597 at 100 µM [1]: -3.03%
- HLA-A2 labelling as % of reference peptide HIV pol 589-597 at 100 µM [2]: 5.62%
- HLA-A2 labelling as % of reference peptide HIV pol 589-597 at 100 µM [3]: 8.8%
- Conc. inducing 20% of HLA-A2 expression [4]: 36 µM
- HLA-A2 labelling as % of reference peptide HIV pol 589-597 at 100 µM [5]: -5.38%
- HLA-A2 labelling as % of reference peptide HIV pol 589-597 at 100 µM [6]: -2.54%
- HLA-A2 labelling as % of reference peptide HIV pol 589-597 at 100 µM [7]: -9.24%
- Conc. inducing 20% of HLA-A2 expression [8]: 26.5 µM
- HLA-A2 labelling as % of reference peptide HIV pol 589-597 at 100 µM [9]: 4.65%
- Conc. inducing 20% of HLA-A2 expression [10]: 30.9 µM
- HLA-A2 labelling as % of reference peptide HIV pol 589-597 at 100 µM [11]: 3.8%
- HLA-A2 labelling as % of reference peptide HIV pol 589-597 at 100 µM [12]: 2.58%
